Key:
Test in all cases: cell-based or functional assay
EGFR = EGFR (UniProt P00533 25-1210, limits assumed)
[1] = molecular target: T1, folate receptor 1 (FOLR1) (human, UniProt P15328 25-234)
[2] = molecular target: T1, folate receptor 1 (FOLR1); remark: listed apart in the source
[3] = molecular target: T1, folate receptor 1 (FOLR1); remark: listed apart in the source

T1 sequence (P15328 25-234): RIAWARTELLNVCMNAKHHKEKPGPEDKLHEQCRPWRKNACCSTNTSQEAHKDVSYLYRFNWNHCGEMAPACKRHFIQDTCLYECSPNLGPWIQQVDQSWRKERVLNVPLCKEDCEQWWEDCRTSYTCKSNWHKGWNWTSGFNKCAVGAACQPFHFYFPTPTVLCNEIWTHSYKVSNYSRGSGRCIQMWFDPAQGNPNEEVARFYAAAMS

B1: huML66-90 conjugate (antibody, human IgG1, kappa, V domains shown)
VH: QVQLQESGPGLVKPSETLSLTCTVSGLSLASNSVSWIRQPPGKGLEWMGVIWNHGGTDYNPSIKSRLSISRDTSKSQVFLKMNSLTAADTAMYFCVRKGGIYFDYWGQGVLVTVSS
VL: DTVLTQSPSLAVSPGERATISCRASESVSTLMHWYQQKPGQQPKLLIYLASHRESGVPARFSGSGSGTDFTLTIDPMEAEDTATYYCQQSRNDPWTFGQGTKLELKR
modifications: drug attachment sites not stated (see heavy chain); compound 90 conjugated to the antibody, average 2.7 per antibody; residues not stated
EC50, in vitro cytotoxicity (WST-8), Detroit-562 cells (EGFR): 0.016 nM
EC50, in vitro cytotoxicity (WST-8), NCI-H292 cells (EGFR): 0.012 nM
EC50, in vitro cytotoxicity (WST-8), NCI-H1703 cells (EGFR): 0.02 nM
EC50, in vitro cytotoxicity, Detroit-562 cells, +block (excess unconjugated huML66 antibody) (EGFR): 2.35 nM
EC50, in vitro cytotoxicity, NCI-H292 cells, +block (excess unconjugated huML66 antibody) (EGFR): 1.57 nM
EC50, in vitro cytotoxicity, NCI-H1703 cells, +block (excess unconjugated huML66 antibody) (EGFR): 2.14 nM

B2: huMOV19-14 conjugate (antibody, human IgG1, kappa, V domains shown)
VH: QVQLVQSGAEVVKPGASVKISCKASGYTFTGYFMNWVKQSPGQSLEWIGRIHPYDGDTFYNQKFQGKATLTVDKSSNTAHMELLSLTSEDFAVYYCTRYDGSRAMDYWGQGTTVTVSS
VL: DIVLTQSPLSLAVSLGQPAIISCKASQSVSFAGTSLMHWYHQKPGQQPRLLIYRASNLEAGVPDRFSGSGSKTDFTLTISPVEAEDAATYYCQQSREYPYTFGGGTKLEIKR
modifications: drug attachment sites not stated (see heavy chain); compound 14 (indolinobenzodiazepine dimer, Gly-Gly-Gly linker, NHS ester) conjugated to the antibody, average 3.0 per antibody; residues not stated
IC50, in vitro cytotoxicity (WST-8) against KB cells [1]: 0.004 nM

B3: huMOV19-90 conjugate (antibody, human IgG1, kappa, V domains shown)
VH: QVQLVQSGAEVVKPGASVKISCKASGYTFTGYFMNWVKQSPGQSLEWIGRIHPYDGDTFYNQKFQGKATLTVDKSSNTAHMELLSLTSEDFAVYYCTRYDGSRAMDYWGQGTTVTVSS
VL: DIVLTQSPLSLAVSLGQPAIISCKASQSVSFAGTSLMHWYHQKPGQQPRLLIYRASNLEAGVPDRFSGSGSKTDFTLTISPVEAEDAATYYCQQSREYPYTFGGGTKLEIKR
modifications: drug attachment sites not stated (see heavy chain); compound 90 (indolinobenzodiazepine dimer, L-Ala-L-Ala linker, NHS ester) conjugated to the antibody, average 2.7 per antibody; residues not stated
IC50, in vitro cytotoxicity (WST-8), KB cells, -Block [2]: 0.004 nM
IC50, in vitro cytotoxicity (WST-8), NCI-H2110 cells, -Block [2]: 0.02 nM
IC50, in vitro cytotoxicity, KB cells, +Block (1 µM blocking anti-FOLR1 antibody huMOV19) [2]: 0.8 nM
IC50, in vitro cytotoxicity, NCI-H2110 cells, +Block (1 µM blocking anti-FOLR1 antibody huMOV19) [2]: 10 nM
IC50, in vitro cytotoxicity (WST-8), Ishikawa cells, conjugate [3]: 0.05 nM
IC50, in vitro cytotoxicity (WST-8), KB cells, conjugate [3]: 0.005 nM
IC50, in vitro cytotoxicity (WST-8), NCI-H2110 cells, conjugate [3]: 0.1 nM
IC50, in vitro cytotoxicity, Ishikawa cells, conjugate + unmodified antibody (1 µM huMOV19) [3]: 1 nM
IC50, in vitro cytotoxicity, KB cells, conjugate + unmodified antibody (1 µM huMOV19) [3]: 1 nM
IC50, in vitro cytotoxicity, NCI-H2110 cells, conjugate + unmodified antibody (1 µM huMOV19) [3]: 4 nM

B4: huMOV19-sulfo-SPDB-107 conjugate (antibody, human IgG1, kappa, V domains shown)
VH: QVQLVQSGAEVVKPGASVKISCKASGYTFTGYFMNWVKQSPGQSLEWIGRIHPYDGDTFYNQKFQGKATLTVDKSSNTAHMELLSLTSEDFAVYYCTRYDGSRAMDYWGQGTTVTVSS
VL: DIVLTQSPLSLAVSLGQPAIISCKASQSVSFAGTSLMHWYHQKPGQQPRLLIYRASNLEAGVPDRFSGSGSKTDFTLTISPVEAEDAATYYCQQSREYPYTFGGGTKLEIKR
modifications: drug attachment sites not stated (see heavy chain); compound 107 linked through sulfo-SPDB linker to the antibody, average 2.7 per antibody; residues not stated
IC50, in vitro cytotoxicity (WST-8), Ishikawa cells, conjugate [3]: 0.05 nM
IC50, in vitro cytotoxicity (WST-8), KB cells, conjugate [3]: 0.005 nM
IC50, in vitro cytotoxicity (WST-8), NCI-H2110 cells, conjugate [3]: 0.1 nM
IC50, in vitro cytotoxicity, Ishikawa cells, conjugate + unmodified antibody (1 µM huMOV19) [3]: 2 nM
IC50, in vitro cytotoxicity, KB cells, conjugate + unmodified antibody (1 µM huMOV19) [3]: 0.8 nM
IC50, in vitro cytotoxicity, NCI-H2110 cells, conjugate + unmodified antibody (1 µM huMOV19) [3]: 7 nM
